Experimental data: publication PMC10259393, “The structural basis of the multi-step allosteric activation of Aurora B kinase” (eLife, 2023)
Non-standard residues stand in square brackets, D forms with d. pS = N[C@@H](COP(=O)(O)O)C(=O)O

Experiments:
[1] = molecular target: IN-box (C-terminal part of INCENP) IN-box, 790-856; experiment: mass photometry at 10 nM complex; details: reference: [Aurora B/IN-box]all-P, as purified; sites T248,S849,S850
[2] = molecular target: T1, Aurora B (59-361 aa) from X. laevis, dephosphorylated, of the [Aurora B/IN-box]^IN-ΔC construct (X. laevis, UniProt Q6DE08 59-361); experiment: co-purification; purified complex after ligation with the synthetic peptide: Superdex S200 16/60, then Ni column by the 6xHis of the ligated IN-box, eluted with imidazole; details: both partners purified
T1 construct: Aurora B kinase, Xenopus laevis, residues 59-361; Thr248 not phosphorylated; also called Aurora B of [Aurora B/IN-box]^IN-P; not shown: 6xHis, N-terminal, cleaved; GB1 domain of streptococcal protein G, N-terminal, cleaved

[3] = molecular target: T2, Aurora B (59-361 aa) from X. laevis, phosphorylated at Thr248, of the [Aurora B/IN-box]^IN-ΔC construct (X. laevis, UniProt Q6DE08 59-361, phosphothreonine at 248); experiment: as above; details: both partners purified
T2 construct: Aurora B kinase, Xenopus laevis, residues 59-361; also called Aurora B of [Aurora B/IN-box]^loop-P; not shown: 6xHis, N-terminal, cleaved; GB1 domain of streptococcal protein G, N-terminal, cleaved

Aurora B 60-361 [Aurora B/IN-box]no-P, λ-phosphatase treated
other: complex molecular weight [1]: same; reference ~44

B1: Semisynthetic IN-box (790-858, Phe845Cys) phosphorylated at Ser849 and Ser850 with C-terminal 6xHis, as in [Aurora B/IN-box]^IN-P (domain or fragment, X. laevis)
chain: DESQPRKPIPAWASGNLLTQAIRQQYYKPIDVDRMYGTIDSPKLEELFNKSKPRYCKRT[pS][pS]AVWHSPPL-{H2N-H2N-H2N-H2N-H2N-H2N}
notes: INCENP, Xenopus laevis, IN-box residues 790-844; synthetic peptide, IN-box residues 845-858 of X. laevis INCENP with Cys in place of Phe845 (scar of the ligation), both serines of the TSS motif phosphorylated; also called IN-box of [Aurora B/IN-box]^IN-P; IN-box^Phe845Cys; source: IN-box^ΔC (E. coli, purified, C-terminal thioester) ligated with a synthetic phosphopeptide; purified (Superdex S200, …)
binding result [2]: binds

B2: Semisynthetic IN-box (790-858, Phe845Cys) with unphosphorylated TSS motif and C-terminal 6xHis, as in [Aurora B/IN-box]^loop-P (domain or fragment, X. laevis)
chain: DESQPRKPIPAWASGNLLTQAIRQQYYKPIDVDRMYGTIDSPKLEELFNKSKPRYCKRTSSAVWHSPPL
notes: INCENP, Xenopus laevis, IN-box residues 790-844; synthetic peptide, IN-box residues 845-858 of X. laevis INCENP with Cys in place of Phe845 (scar of the ligation); also called IN-box of [Aurora B/IN-box]^loop-P; IN-box^Phe845Cys; source: IN-box^ΔC (E. coli, purified, C-terminal thioester) ligated with a synthetic peptide; purified (Superdex S200, Ni column); not shown: 6xHis, C-terminal, kept
binding result [3]: binds
